Results taken from article PMC9951844 (Nature Communications, 2023).

How the values were obtained:
[1] = target: Delta spike (based on S-R/Wildtype spike) (SARS-CoV-2 Delta (B.1.617.2), L452R | T478K)
[2] = target: SARS-CoV-2 Delta (B.1.617.2) S1 (SARS-CoV-2 Delta (B.1.617.2), strain)
[3] = target: SARS-CoV-2 Gamma (P.1) S1 (SARS-CoV-2 Gamma (P.1), strain)
[4] = target: Omicron BA.1 spike (based on S-R/Wildtype spike) (SARS-CoV-2 Omicron BA.1 (B.1.1.529), S371L | S373P | S375F | K417N)
SARS-CoV-2 wildtype S1 = SARS-CoV-2 wildtype S1 (SARS-CoV-2 wildtype (Wuhan), UniProt P0DTC2)
[5] = target: SARS-CoV-2 Beta (B.1.351) S1 (SARS-CoV-2 Beta (B.1.351), strain)
[6] = target: SARS-CoV-2 Lambda (C.37) RBD (SARS-CoV-2 Lambda (C.37), strain)
S-R/Wildtype spike = S-R/Wildtype spike (SARS-CoV-2 hCoV-19/Wuhan/WIV04/2019, UniProt P0DTC2, stabilised)
[7] = target: SARS-CoV-2 Omicron BA.1 (B.1.1.529) RBD (SARS-CoV-2 Omicron BA.1 (B.1.1.529), strain)
[8] = target: SARS-CoV-2 Kappa (B.1.617.1) spike ECD (SARS-CoV-2 Kappa (B.1.617.1), strain)

Measured: binding result

B1: YB12-197 (antibody, V domains shown)
VH: EVQLVESGGGLVQPGGSLRLSCAASGFTVSSNYMNWVRQAPGKGLEWVSVIYSGGSTFYADSVKGRFTISRDNSKNTLYLQMNSLRAEDTAVYYCARDAYNYGANWGQGTLVTVSS
VL: HLVLTQSPSASASLGASVKLTCTLSSGHSNNAIAWHQQQPEKGPRYLMHLNSDGSHTKGDGIPDRFSGSSSGAERYLTISSLQSEDEAEYYCQTWGTDIHWVFGGGTKLTVR
binds: all assays above

B2: YB13-281 (antibody, V domains shown)
VH: EVQLVESGGGLVKPGGSLRLSCAASGFTFSSYSMNWVRQAPGKGLEWVSSISSSSSYIHYADSVKGRFTISRDNAKNSLYLQMNSLRAEDTAVYYCARVSSKDYYDRSGYLRGDYDYGMDVWGQGTTVTVSS
VL: QSVLTQPPSVSGAPGQRVTISCTGNSSNIGAAYDVHWYQQLPGTAPKLLIYGNSNRPSGVPDRFSGSKSGTSASLAITGLQAEDEADYYCQSYDSSLSGVFGGGTKLTVL
binds: all assays above

B3: YB13-208 (antibody, V domains shown)
V domain 1: QITLKESGPTLVKPTQTLTLTCTFSGLSLSTSGVSVGWIRQPPGKAPEWLALIYWDDDKRYSPSLTSRLSITKDTSKNQVVLTMTNMDPVDTATYYCAHPRYYGDSSGYYWIWGQGTMVTVSS
V domain 2: SYELTQPPSVSVSPGQTARITCSGDALPKQYAYWYQQKPGQAPVVVMYKTSERPSGIPERFSGSSSGTTVTLTISGVQAEDEADYYCQSADSSGFYVFGTGTQVTVL
not listed: [7]
binds: all other assays above

B4: YB9-120 (antibody, V domains shown)
VH: QVQLQESGPGLVKPSGTLSLTCAVSGGSIRTTKWWSWVRQPPGKGLEWIGEIHHGGNTNYNPSLKSRVTISVDKSKNQFSLKLTSVTAADTAVYYCARDGGGVGTPLEYWGQGTLVTVSS
VL: QSGLTQPASVSGSPGQSITISCTGTISDVGAYNYVSWYQQHPGRAPKVVIYDVSERPSGTSNRFSGSKSGNTASLTISGLQAEDEADYYCSSFTNTTPVVFGGGTKLTVL
binds: all assays above
